Measured values taken from publication PMC10797690, “The SIRT3-ATAD3A axis regulates MAM dynamics and mitochondrial calcium homeostasis in cardiac hypertrophy” (International Journal of Biological Sciences, 2024).

B1: ATAD3A-Flag [not stated] / itself (parent)
chain: MSWLFGIKGPKGEGTGPPLPLPPAQPGAESGGDRGAGDRPSPKDKWSNFDPTGLERAAKAARELEHSRHAKEALNLAQMQEQTLQLEQQSKLKEYEAAVEQLKSEQIRVQAEERRKTLNEETRQHQARAQYQDKLARQRYEDQLKQQQLLNEENLRKQEESVQKQEAIRRATVEREMELRHKNEMLRVEAEARARAKADRENADIIREQIRLKAAEHRQTILESIRTAGTLFGEGFRAFVTDWDKVTATVAGLTLLAVGVYSAKNATSVAGRYIEARLGKPSLVRETSRISVLEALRHPIQVSRRLVSRPQDALEGVILSPSLEARVRDIAIATRNTKKNKSLYRNVLMYGPPGTGKTLFAKKLALHSGMDYAIMTGGDVAPMGREGVTAMHKVFDWASTSRRGLLLFVDEADAFLRKRATEKISEDLRATLNAFLHRTGQHSNKFMLVLASNQPEQFDWAINDRIDEMVCFALPQREERERLVRMYFDKYVLKPATEGKQRLKVAQFDYGKKCSEVAQLTAGMSGREIAQLAVAWQAMAYSSEDGVLTEAMMDARVQDAVQQHQQKMQWLKVERPDSEASKPPHPSLLSC

Variants of: B1
Experiment: native gel electrophoresis (-DTT), anti-Flag immunoblot, oligomer band quantified
Settings: with itself, H9c2 cells, n = 3, mean ± SEM, parent: 1, read off a plot

Compared with MSWLFGIKGPKGEGTGPPLPLPPAQPGAESGGDRGAGDRPSPKDKWSNFDPTGLERAAKAARELEHSRHAKEALNLAQMQEQTLQLEQQSKLKEYEAAVEQLKSEQIRVQAEERRKTLNEETRQHQARAQYQDELARQRYEDQLKQQQLLNEENLRKQEESVQKQEAIRRATVEREMELRHKNEMLRVEAEARARAKADRENADIIREQIRLKAAEHRQTILESIRTAGTLFGEGFRAFVTDWDKVTATVAGLTLLAVGVYSAKNATSVAGRYIEARLGKPSLVRETSRISVLEALRHPIQVSRRLVSRPQDALEGVILSPSLEARVRDIAIATRNTKKNKSLYRNVLMYGPPGTGKTLFAKKLALHSGMDYAIMTGGDVAPMGREGVTAMHKVFDWASTSRRGLLLFVDEADAFLRKRATEKISEDLRATLNAFLHRTGQHSNKFMLVLASNQPEQFDWAINDRIDEMVCFALPQREERERLVRMYFDKYVLKPATEGKQRLKVAQFDYGKKCSEVAQLTAGMSGREIAQLAVAWQAMAYSSEDGVLTEAMMDARVQDAVQQHQQKMQWLKVERPDSEASKPPHPSLLSC [chain 1 K134E], MSWLFGIKGPKGEGTGPPLPLPPAQPGAESGGDRGAGDRPSPKDKWSNFDPTGLERAAKAARELEHSRHAKEALNLAQMQEQTLQLEQQSKLKEYEAAVEQLKSEQIRVQAEERRKTLNEETRQHQARAQYQDALARQRYEDQLKQQQLLNEENLRKQEESVQKQEAIRRATVEREMELRHKNEMLRVEAEARARAKADRENADIIREQIRLKAAEHRQTILESIRTAGTLFGEGFRAFVTDWDKVTATVAGLTLLAVGVYSAKNATSVAGRYIEARLGKPSLVRETSRISVLEALRHPIQVSRRLVSRPQDALEGVILSPSLEARVRDIAIATRNTKKNKSLYRNVLMYGPPGTGKTLFAKKLALHSGMDYAIMTGGDVAPMGREGVTAMHKVFDWASTSRRGLLLFVDEADAFLRKRATEKISEDLRATLNAFLHRTGQHSNKFMLVLASNQPEQFDWAINDRIDEMVCFALPQREERERLVRMYFDKYVLKPATEGKQRLKVAQFDYGKKCSEVAQLTAGMSGREIAQLAVAWQAMAYSSEDGVLTEAMMDARVQDAVQQHQQKMQWLKVERPDSEASKPPHPSLLSC [chain 1 K134A] is lower in response: 1 arbitrary for the first, 0.42 arbitrary for the second.

For MSWLFGIKGPKGEGTGPPLPLPPAQPGAESGGDRGAGDRPSPKDKWSNFDPTGLERAAKAARELEHSRHAKEALNLAQMQEQTLQLEQQSKLKEYEAAVEQLKSEQIRVQAEERRKTLNEETRQHQARAQYQDQLARQRYEDQLKQQQLLNEENLRKQEESVQKQEAIRRATVEREMELRHKNEMLRVEAEARARAKADRENADIIREQIRLKAAEHRQTILESIRTAGTLFGEGFRAFVTDWDKVTATVAGLTLLAVGVYSAKNATSVAGRYIEARLGKPSLVRETSRISVLEALRHPIQVSRRLVSRPQDALEGVILSPSLEARVRDIAIATRNTKKNKSLYRNVLMYGPPGTGKTLFAKKLALHSGMDYAIMTGGDVAPMGREGVTAMHKVFDWASTSRRGLLLFVDEADAFLRKRATEKISEDLRATLNAFLHRTGQHSNKFMLVLASNQPEQFDWAINDRIDEMVCFALPQREERERLVRMYFDKYVLKPATEGKQRLKVAQFDYGKKCSEVAQLTAGMSGREIAQLAVAWQAMAYSSEDGVLTEAMMDARVQDAVQQHQQKMQWLKVERPDSEASKPPHPSLLSC [chain 1 K134Q], the response was 0.16 arbitrary.
